{"source": "patent US20110230374A1", "about": "(UNIVERSITY OF MARYLAND BALTIMORE, published 2011)", "binders": {"B1": {"name": "VLRB.CTMut.5 (other)", "chain": "ACPSQCSCDQTTVYCHNRRLTSVPTGIPTTTQVLYLYDNQITKLEPGVFDRLTKLTHLSLGYNQLKSVPRGAFDNLKSLTHIWLLNNPWDCQCTDILYLKNWIVQHASIVNPHTHGGVDNVKCSGTNTPVRAVTEASTSPSKC"}, "B2": {"name": "VLRB.HEL.2D (other)", "chain": "ACPSQCSCSGTTVDCSGKSLASVPTGIPTTTQVLYLYDNQITKLEPGVFDRLTQLTRLDLDNNQLTVLPAGVFDKLTQLTQLSLNDNQLKSIPRGAFDNLKSLTHIWLLNNPWDCACSDILYLSRWISQHPGLVFGYLNLDPDSARCSGTNTPVRAVTEASTSPSKCP", "notes": "also called VLRB.2D; wild-type VLRB.2D"}, "B3": {"name": "VLRB.2DMut.12 (other)", "chain": "B2 chain with G132W, P142H"}, "B4": {"name": "VLRB.2DMut.13 (other)", "chain": "B2 chain with Q40R, K101R, G132W, P142H, E159K"}, "B5": {"name": "VLRB.2DMut.15 (other)", "chain": "B2 chain with T29I, D86V, D141Y"}}, "key": {"hen egg lysozyme [1]": {"molecular_target": "T1, hen egg lysozyme (hen, UniProt P00698 19-147)", "T1 construct": "Soluble monovalent antigen; Biotinylated for YSD titration; unlabelled analyte in SPR and titrant in ITC; also called HEL", "T1 sequence (P00698 19-147)": "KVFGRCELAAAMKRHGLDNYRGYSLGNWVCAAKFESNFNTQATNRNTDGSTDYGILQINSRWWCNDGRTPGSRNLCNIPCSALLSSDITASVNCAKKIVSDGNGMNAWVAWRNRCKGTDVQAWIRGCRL", "experiment": "SPR (BIAcore T100), biotinylated yeast-secreted VLR on NeutrAvidin, HEL as analyte (7.66-0.00299 nM)"}, "hen egg lysozyme [2]": {"molecular_target": "T1, hen egg lysozyme", "experiment": "SPR, Table 1"}, "hen egg lysozyme [3]": {"molecular_target": "T1, hen egg lysozyme", "experiment": "SPR, steady-state analysis, VLRB.2D (117.0-10.9 µM) over immobilized HEL (FIG. 3A); SPR of FIG. 3A; clone found by phage display"}, "hen egg lysozyme [4]": {"molecular_target": "T1, hen egg lysozyme", "experiment": "SPR (BIAcore T100), biotinylated yeast-secreted VLR on NeutrAvidin, antigen as analyte"}, "hen egg lysozyme [5]": {"molecular_target": "T1, hen egg lysozyme", "experiment": "YSD antigen titration, flow cytometry, biotin-HEL and SAPE"}, "hen egg lysozyme [6]": {"molecular_target": "T1, hen egg lysozyme", "experiment": "ITC at 25 C, VLR refolded from E. coli inclusion bodies, HEL injected"}, "hen egg lysozyme [7]": {"molecular_target": "T1, hen egg lysozyme", "experiment": "SPR, VLR over immobilized HEL"}, "hen egg lysozyme [8]": {"molecular_target": "T1, hen egg lysozyme", "experiment": "SPR, steady-state analysis, 2DMut.12 (30.8-1.0 µM) over immobilized HEL (FIG. 3B)"}}, "note": "Positions count from the first letter of the chain named."}
{"binder": "B1", "values": [{"measurement": "Kd", "setting": "hen egg lysozyme [1]", "result": 0.119, "unit": "nM"}, {"measurement": "fold improvement of affinity over VLRB.HEL.1", "setting": "hen egg lysozyme [2]", "result": 1300, "unit": "fold"}]}
{"binder": "B2", "values": [{"measurement": "Kd", "setting": "hen egg lysozyme [3]", "result": 20000, "unit": "nM"}, {"measurement": "Kd", "setting": "hen egg lysozyme [4]", "result": 455, "unit": "nM"}, {"measurement": "Kd", "setting": "hen egg lysozyme [5]", "result": 659, "unit": "nM"}, {"measurement": "Kd", "setting": "hen egg lysozyme [6]", "result": 427, "unit": "nM"}]}
{"binder": "B3", "values": [{"measurement": "fold improvement of affinity over wild-type VLRB.2D", "setting": "hen egg lysozyme [7]", "result": 13, "unit": "fold"}, {"measurement": "Kd", "setting": "hen egg lysozyme [8]", "result": 1500, "unit": "nM"}, {"measurement": "Kd", "setting": "hen egg lysozyme [4]", "result": 4.3, "unit": "nM"}, {"measurement": "Kd", "setting": "hen egg lysozyme [5]", "result": 6.9, "unit": "nM"}, {"measurement": "fold improvement of affinity over wild-type VLRB.HEL.2D", "setting": "hen egg lysozyme [2]", "result": 100, "unit": "fold"}, {"measurement": "Kd", "setting": "hen egg lysozyme [6]", "result": 28, "unit": "nM"}]}
{"binder": "B4", "values": [{"measurement": "Kd", "setting": "hen egg lysozyme [4]", "result": 55.1, "unit": "nM"}, {"measurement": "Kd", "setting": "hen egg lysozyme [6]", "result": 34, "unit": "nM"}]}
{"binder": "B5", "values": [{"measurement": "Kd", "setting": "hen egg lysozyme [4]", "result": 20.2, "unit": "nM"}, {"measurement": "Kd", "setting": "hen egg lysozyme [6]", "result": 8, "unit": "nM"}]}
